One substance from publication PMC4807281, “Glutathionylation of the Bacterial Hsp70 Chaperone DnaK Provides a Link between Oxidative Stress and the Heat Shock Response” (The Journal of Biological Chemistry, 2016) can be followed below.

The target in this data set is Cys15 (UniProt position 15, GTTNSCVAIMD). The data set can be described thus: UV-vis. To be noted: 25 °C; 100 mM KCl, 5 mM MgCl2 (plus KOH added during titration); Buffer B: 50 mM Tris-HCl, pH 7.5, 100 mM KCl, 5 mM MgCl2. The pH was raised by stepwise addition of 6 N KOH in Buffer B.; Reduced (free thiol) DnaK with no nucleotide or peptide added (apo state), 15 μM protein.

Regarding “Chaperone protein DnaK (Hsp70) (Escherichia coli)”, the pKa result is “about 12”.
